The source of these data is article doi:10.1101/2024.05.21.594841 (bioRxiv, 2024).

Experiment in all cases: split reporter
The target in one experiment is T1, Yos9p (S. cerevisiae, UniProt Q99220 22-542).
T1 sequence: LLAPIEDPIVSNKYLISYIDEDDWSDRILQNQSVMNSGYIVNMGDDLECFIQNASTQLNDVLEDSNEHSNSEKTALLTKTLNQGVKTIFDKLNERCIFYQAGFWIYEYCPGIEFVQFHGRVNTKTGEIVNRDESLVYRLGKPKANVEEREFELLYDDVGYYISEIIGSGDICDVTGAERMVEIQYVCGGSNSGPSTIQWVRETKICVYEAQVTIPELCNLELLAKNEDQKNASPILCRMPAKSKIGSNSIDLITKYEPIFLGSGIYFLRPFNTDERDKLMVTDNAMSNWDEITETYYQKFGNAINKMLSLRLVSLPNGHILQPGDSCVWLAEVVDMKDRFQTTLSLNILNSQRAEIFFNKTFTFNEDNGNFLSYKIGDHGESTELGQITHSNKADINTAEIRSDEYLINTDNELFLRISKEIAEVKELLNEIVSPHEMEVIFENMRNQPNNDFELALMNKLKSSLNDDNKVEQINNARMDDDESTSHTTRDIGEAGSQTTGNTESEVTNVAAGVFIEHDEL

The target in the next experiment is T2, Mpd1p (S. cerevisiae, UniProt Q12404 22-318).
T2 sequence: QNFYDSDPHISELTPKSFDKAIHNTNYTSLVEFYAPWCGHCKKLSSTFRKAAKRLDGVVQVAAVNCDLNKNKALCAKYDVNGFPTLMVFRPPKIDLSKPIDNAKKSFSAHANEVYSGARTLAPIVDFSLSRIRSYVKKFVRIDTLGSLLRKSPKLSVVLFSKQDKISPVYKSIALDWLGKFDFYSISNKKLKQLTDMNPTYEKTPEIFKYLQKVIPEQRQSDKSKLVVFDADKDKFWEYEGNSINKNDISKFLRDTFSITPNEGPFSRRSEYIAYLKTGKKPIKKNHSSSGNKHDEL

In a further experiment the target is T3, Sed4p (S. cerevisiae, UniProt P25365 1-1065).
T3 sequence: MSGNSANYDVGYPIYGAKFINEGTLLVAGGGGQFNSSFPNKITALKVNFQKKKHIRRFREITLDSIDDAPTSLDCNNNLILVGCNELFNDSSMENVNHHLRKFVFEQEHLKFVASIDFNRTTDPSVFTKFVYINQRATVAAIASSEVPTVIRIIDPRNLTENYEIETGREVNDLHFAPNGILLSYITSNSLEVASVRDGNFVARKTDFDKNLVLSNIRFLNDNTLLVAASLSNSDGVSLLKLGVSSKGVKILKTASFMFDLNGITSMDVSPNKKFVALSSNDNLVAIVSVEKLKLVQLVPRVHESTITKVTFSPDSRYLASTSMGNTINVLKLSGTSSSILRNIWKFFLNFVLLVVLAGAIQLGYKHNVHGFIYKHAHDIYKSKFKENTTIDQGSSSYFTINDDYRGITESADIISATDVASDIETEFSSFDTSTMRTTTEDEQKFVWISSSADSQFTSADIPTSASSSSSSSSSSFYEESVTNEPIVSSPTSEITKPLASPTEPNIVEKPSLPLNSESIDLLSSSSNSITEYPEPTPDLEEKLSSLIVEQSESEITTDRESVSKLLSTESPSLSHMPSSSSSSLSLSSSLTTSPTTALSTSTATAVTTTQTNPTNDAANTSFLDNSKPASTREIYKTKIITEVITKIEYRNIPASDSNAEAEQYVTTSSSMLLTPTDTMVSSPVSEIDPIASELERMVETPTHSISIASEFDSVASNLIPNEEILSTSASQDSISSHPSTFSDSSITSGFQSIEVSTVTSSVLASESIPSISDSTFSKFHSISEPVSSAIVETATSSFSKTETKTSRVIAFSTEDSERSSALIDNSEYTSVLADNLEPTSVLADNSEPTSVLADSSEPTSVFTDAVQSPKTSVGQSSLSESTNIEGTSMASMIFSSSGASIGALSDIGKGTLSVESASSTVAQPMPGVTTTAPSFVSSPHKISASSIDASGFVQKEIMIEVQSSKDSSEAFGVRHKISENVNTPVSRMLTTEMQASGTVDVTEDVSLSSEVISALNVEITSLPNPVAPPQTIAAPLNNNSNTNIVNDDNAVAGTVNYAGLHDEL

A further experiment concerns the target Kar2p (S. cerevisiae, UniProt P16474 43-682).
The next experiment addresses T4, Sec20p (S. cerevisiae, UniProt P28791 1-383).
T4 sequence: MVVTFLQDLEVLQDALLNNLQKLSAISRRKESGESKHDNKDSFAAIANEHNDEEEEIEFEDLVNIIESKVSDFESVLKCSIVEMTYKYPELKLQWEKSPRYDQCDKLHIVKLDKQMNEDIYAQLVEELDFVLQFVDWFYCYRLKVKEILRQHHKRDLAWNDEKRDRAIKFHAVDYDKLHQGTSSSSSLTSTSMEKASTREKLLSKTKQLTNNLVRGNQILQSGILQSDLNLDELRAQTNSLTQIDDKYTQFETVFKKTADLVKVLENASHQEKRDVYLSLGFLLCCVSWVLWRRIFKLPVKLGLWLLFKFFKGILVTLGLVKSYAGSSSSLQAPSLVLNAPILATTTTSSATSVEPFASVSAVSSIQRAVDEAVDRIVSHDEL

Chain of Kar2p (P16474 43-682): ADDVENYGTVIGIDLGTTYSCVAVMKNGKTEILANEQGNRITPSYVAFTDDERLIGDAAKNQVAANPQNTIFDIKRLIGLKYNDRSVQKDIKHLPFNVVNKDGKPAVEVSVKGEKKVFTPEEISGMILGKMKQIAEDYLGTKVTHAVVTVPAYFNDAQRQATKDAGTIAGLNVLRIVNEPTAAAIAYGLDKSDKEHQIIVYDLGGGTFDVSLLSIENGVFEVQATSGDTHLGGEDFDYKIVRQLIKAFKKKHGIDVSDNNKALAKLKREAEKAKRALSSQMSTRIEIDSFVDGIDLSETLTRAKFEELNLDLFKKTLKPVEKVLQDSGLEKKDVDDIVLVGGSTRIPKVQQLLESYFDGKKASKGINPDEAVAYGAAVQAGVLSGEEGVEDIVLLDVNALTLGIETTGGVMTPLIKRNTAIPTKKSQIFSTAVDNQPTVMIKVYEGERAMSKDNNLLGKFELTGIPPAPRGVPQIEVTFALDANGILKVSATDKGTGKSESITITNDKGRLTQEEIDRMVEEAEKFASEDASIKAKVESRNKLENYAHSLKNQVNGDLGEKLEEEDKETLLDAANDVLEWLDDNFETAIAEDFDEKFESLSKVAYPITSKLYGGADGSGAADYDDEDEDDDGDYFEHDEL

B1: Lhs1p (natural protein)
chain: AVLGVDYGQQNIKAIVVSPQAPLELVLTPEAKRKEISGLSIKRLPGYGKDDPNGIERIYGSAVGSLATRFPQNTLLHLKPLLGKSLEDETTVTLYSKQHPGLEMVSTNRSTIAFLVDNVEYPLEELVAMNVQEIANRANSLLKDRDARTEDFVNKMSFTIPDFFDQHQRKALLDASSITTGIEETYLVSEGMSVAVNFVLKQRQFPPGEQQHYIVYDMGSGSIKASMFSILQPEDTTQPVTIEFEGYGYNPHLGGAKFTMDIGSLIENKFLETHPAIRTDELHANPKALAKINQAAEKAKLILSANSEASINIESLINDIDFRTSITRQEFEEFIADSLLDIVKPINDAVTKQFGGYGTNLPEINGVILAGGSSRIPIVQDQLIKLVSEEKVLRNVNADESAVNGVVMRGIKLSNSFKTKPLNVVDRSVNTYSFKLSNESELYDVFTRGSAYPNKTSILTNTTDSIPNNFTIDLFENGKLFETITVNSGAIKNSYSSDKCSSGVAYNITFDLSSDRLFSIQEVNCICQSENDIGNSKQIKNKGSRLAFTSEDVEIKRLSPSERSRLHEHIKLLDKQDKERFQFQENLNVLESNLYDARNLLMDDEVMQNGPKSQVEELSEMVKVYLDWLEDASFDTDPEDIVSRIREIGILKKKIELYMDSAKEPLNSQQFKGMLEEGHKLLQAIETHKNTVEEFLSQFETEFADTIDNVREEFKKIKQPAYVSKALSTWEETLTSFKNSISEIEKFLAKNLFGEDLREHLFEIKLQFDMYRTKLEEKLRLIKSGDESRLNEIKKLHLRNFRLQKRKEEKLKRKLEQEKSRNNNETESTVINSADDKTTIVNDKTTESNPSSEEDILHDEL
As to B1, the normalized interacting score was greater than 40% in the experiment with Yos9p; 18% with Mpd1p; greater than 40% with Sed4p; 93% in the experiment with Kar2p; 20% with Sec20p.
